Test results from US12612465B2, “Formulations comprising PCSK9 specific monoclonal antibodies” (Amgen Inc., priority 2012, dated 2026).
Entries after “also recorded” stand apart in the source; their conditions may differ. Marks after values point to notes of the source that are not given here.

Columns and labels:
PCSK9 [1] = biological target: T1, PCSK9 (Homo sapiens, UniProt Q8NBP7); assay: 12 week study in hypercholesterolemic patients unable to tolerate a statin (Example 23); format: in vivo; details: statin-intolerant, preliminary
T1 construct: endogenous in cells; host or cells: human subjects, in vivo
T1 sequence (Q8NBP7 153-692): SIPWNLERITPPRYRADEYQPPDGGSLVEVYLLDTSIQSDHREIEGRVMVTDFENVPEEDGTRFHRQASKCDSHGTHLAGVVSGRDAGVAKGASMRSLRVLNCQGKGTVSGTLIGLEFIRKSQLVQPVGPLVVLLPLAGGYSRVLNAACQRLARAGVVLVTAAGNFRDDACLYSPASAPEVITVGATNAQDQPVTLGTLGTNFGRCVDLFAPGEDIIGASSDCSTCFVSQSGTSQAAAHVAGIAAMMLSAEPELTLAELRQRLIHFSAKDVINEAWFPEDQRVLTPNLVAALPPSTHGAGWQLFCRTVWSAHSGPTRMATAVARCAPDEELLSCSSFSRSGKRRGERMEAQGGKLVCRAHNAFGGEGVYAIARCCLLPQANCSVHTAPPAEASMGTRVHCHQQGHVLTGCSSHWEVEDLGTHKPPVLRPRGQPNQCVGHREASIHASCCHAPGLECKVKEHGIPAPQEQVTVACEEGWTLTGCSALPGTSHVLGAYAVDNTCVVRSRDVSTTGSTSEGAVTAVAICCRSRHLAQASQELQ
Method: It is planned to enroll 150 subjects. […] Randomization will be stratified by screening LDL-C level (<130 mg/dL [3.4 mmol/L] vs ≥130 mg/dL) and statin use at baseline (yes vs no). Randomization should occur within 5-10 days of the screening LDL-C evaluation used to determine eligibility. Monoclonal antibody, 21B12, and placebo will be blinded. Ezetimibe is not blinded. Study visits are at weeks 2, 4, 8, and 12. […] The end-of-study visit and the last evaluation of lipids is at week 12.
Males and females, ≥18 to ≤75 years of age, are eligible for this study. Subject must have tried at least 1 statin and have been unable to tolerate any dose or an increase in statin dose above the following total weekly maximum doses due to myalgia or myopathy: atorvastatin ≤70 mg, simvastatin ≤140 mg, pravastatin ≤140 mg, rosuvastatin ≤35 mg, lovastatin ≤140 mg, fluvastatin ≤280 mg. For unlisted statins, the maximal total weekly dose should not exceed 7 times the smallest available tablet size. Symptoms must have resolved when statin was discontinued or the dose reduced. If receiving statin (not exceeding the maximal dose defined above), bile-acid sequestering resin, and/or stanol therapy, the dose(s) must be stable for at least 4 weeks prior to LDL-C screening. If the subject is on ezetimibe at start of screening, ezetimibe must be discontinued for ≥4 weeks before LDL-C screening. Depending on their risk category (based on NCEP ATP III treatment goals) subjects must meet the following fasting LDL-C (by central laboratory) criteria at screening: ≥100 mg/dL (2.6 mmol/L) for subjects with diagnosed coronary heart disease (CHD) or CHD risk equivalent; ≥130 mg/dL (3.4 mmol/L) for subjects without diagnosed CHD or risk equivalent and 2 or more risk factors; ≥160 mg/dL (4.1 mmol/L) for subjects without diagnosed CHD or risk equivalent and with 1 or no risk factors. Fasting triglycerides must be ≤400 mg/dL (4.5 mmol/L) as determined by the central laboratory analysis at screening.

PCSK9 [2] = biological target: T1, PCSK9; assay: 12 week monotherapy dose-ranging study, Framingham risk 10% or less (Example 24); format: in vivo; details: for Treatment difference vs ezetimibe in LDL-C percent change, week 12 / Treatment difference vs placebo in LDL-C percent change, week 12: P < 0.001; for mean percent reduction from baseline in LDL-C: monotherapy, preliminary
Method: Ezetimibe was not blinded. The end-of-study visit and the last estimation of lipids was at week 12 for subjects on Q4W IP schedule or on ezetimibe and week 14 for subjects on Q2W IP schedule.
Males and females, ≥18 to ≤75 years of age, were eligible for this study. Fasting LDL-C was ≥100 mg/dL (2.6 mmol/L) and ≤190 mg/dL (4.9 mmol/L) and fasting triglycerides ≤400 mg/dL (4.5 mmol/L) by central laboratory at screening.
The primary endpoint was the percent change from baseline in LDL-C at week 12. Secondary endpoints included percent changes in apolipoprotein B (ApoB), lipoprotein (a) (Lp(a)), and in the ratio of total cholesterol to high-density lipoprotein (HDL)-C. Tolerability and safety were also evaluated.

PCSK9 [3] = assay: Serum lipids after a single subcutaneous dose in cynomolgus monkeys; format: in vivo, cynomolgus monkey; details: 0.5 mg/kg single SC
Excerpt: Briefly, naive male cynomolgus monkeys were acclimated to their environment for at least 2 weeks prior to experimentation. Animals were randomized into treatment groups based on a pre-screen of their serum TC, HDL-C, LDL-C, and triglyceride levels, and their body weight. After 1 week, animals were fasted overnight, and bled from the peripheral vasculature (cephalic or saphenous vein), for measurement of baseline serum lipid levels at a time point designated T=0. […] Fasting blood samples were then collected from animals at designated time points over a 45 day period.
At specified time points, blood was collected from animals under overnight fasting conditions from the peripheral vasculature (cephalic or saphenous vein). Whole blood was allowed to coagulate for 30 minutes at room temperature. Following centrifugation at 3,000 rpm for 20 minutes, serum was collected. Direct serum cholesterol analysis was performed using the Cobas Integra 400 analyzer (Roche Diagnostics Inc, Indianapolis, Ind.). Apolipoprotein B serum levels were determined at specified time points (day 0, 3, 6, 15, 24 and 33) by Anilytics, Md., with the following methodology. A 17 μL aliquot of the sample (no preparation) was used for analysis with a Hitachi 717 Analyzer using a 6 points standard curve. If the initial value of the sample was higher than the standard curve linearity, then the sample was diluted and repeated with the result multiplied by the appropriate dilution factor. The reagents for the assay (APO-B Reagent Kit #86071, Antibody Set #86060, Control Set #86103) were obtained from DiaSorin (Stillwater, Minn.).
A statistical model that considers baseline as a covariate and treatment group as a fixed effect was fit to the log transformed response at each time point for LDL-C, HDL-C, TC, and triglycerides. Tukey's multiple comparison correction was applied to adjust the pair wise comparisons at each time point. The statistical significance was evaluated at alpha=0.05 using adjusted p-values.

[4] = 280 mg Q4W SC, end of dosing interval
[5] = 350 mg Q4W SC, end of dosing interval

B1: 21B12: human anti-PCSK9 monoclonal antibody, light/heavy variable region SEQ ID NO 23/49 (antibody, listed as Homo sapiens, V domains shown)
VH: QVQLVQSGAEVKKPGASVKVSCKASGYTLTSYGISWVRQAPGQGLEWMGWVSFYNGNTNYAQKLQGRGTMTTDPSTSTAYMELRSLRSDDTAVYYCARGYGMDVWGQGTTVTVSS
VL: QSALTQPASVSGSPGQSITISCTGTSSDVGGYNSVSWYQQHPGKAPKLMIYEVSNRPSGVSNRFSGSKSGNTASLTISGLQAEDEADYYCNSYTSTSMVFGGGTKLTVL
PCSK9 [1]; [4]
  LS mean percent increase from baseline in HDL-C: 8.62%
  LS mean percent reduction from baseline in LDL-C: 38.79%
  LS mean percent reduction from baseline in Lp(a): 27.38%
  LS mean percent reduction from baseline in VLDL-C: 31.02%
  LS mean percent reduction from baseline in non-HDL-C: 39.92%
  LS mean percent reduction from baseline in total cholesterol: 31.03%
  LS mean percent reduction from baseline in triglycerides: 15.35%
PCSK9 [1]; [5]
  LS mean percent increase from baseline in HDL-C: 4.62%
  LS mean percent reduction from baseline in LDL-C: 40.01%
  LS mean percent reduction from baseline in Lp(a): 16.04%
  LS mean percent reduction from baseline in VLDL-C: 38.14%
  LS mean percent reduction from baseline in non-HDL-C: 42.86%
  LS mean percent reduction from baseline in total cholesterol: 34.46%
  LS mean percent reduction from baseline in triglycerides: 19.22%
PCSK9 [1]; 420 mg Q4W SC
  LS mean percent increase from baseline in HDL-C: 7.55%
  LS mean percent reduction from baseline in LDL-C: 50.63%
  LS mean percent reduction from baseline in Lp(a): 23.84%
  LS mean percent reduction from baseline in VLDL-C: 37.27%
  LS mean percent reduction from baseline in non-HDL-C: 53.49%
  LS mean percent reduction from baseline in total cholesterol: 42.23%
  LS mean percent reduction from baseline in triglycerides: 19.55%
PCSK9 [2]; 70 mg Q2W SC (N = 45)
  Least squares mean percent change from baseline in LDL-C, week 12: −40.98%
PCSK9 [2]; 70 mg Q2W SC
  Treatment difference vs ezetimibe in LDL-C percent change, week 12: −26.73* %
  Treatment difference vs placebo in LDL-C percent change, week 12: −37.27* %
PCSK9 [2]; 70 mg Q2W SC, end of dosing interval
  mean percent reduction from baseline in LDL-C: 41.21%
PCSK9 [2]; 105 mg Q2W SC (N = 46)
  Least squares mean percent change from baseline in LDL-C, week 12: −43.87%
PCSK9 [2]; 105 mg Q2W SC
  Treatment difference vs ezetimibe in LDL-C percent change, week 12: −29.62* %
  Treatment difference vs placebo in LDL-C percent change, week 12: −40.17* %
PCSK9 [2]; 105 mg Q2W SC, end of dosing interval
  mean percent reduction from baseline in LDL-C: 45.44%
PCSK9 [2]; 140 mg Q2W SC (N = 45)
  Least squares mean percent change from baseline in LDL-C, week 12: −50.93%
PCSK9 [2]; 140 mg Q2W SC
  Treatment difference vs ezetimibe in LDL-C percent change, week 12: −36.68* %
  Treatment difference vs placebo in LDL-C percent change, week 12: −47.23* %
  mean percent reduction from baseline in LDL-C: 51.56%
PCSK9 [2]; 280 mg Q4W SC (N = 45)
  Least squares mean percent change from baseline in LDL-C, week 12: −39.02%
PCSK9 [2]; 280 mg Q4W SC
  Treatment difference vs ezetimibe in LDL-C percent change, week 12: −25.17* %
  Treatment difference vs placebo in LDL-C percent change, week 12: −43.57* %
PCSK9 [2]; [4]
  mean percent reduction from baseline in LDL-C: 37.53%
PCSK9 [2]; 350 mg Q4W SC (N = 45)
  Least squares mean percent change from baseline in LDL-C, week 12: −43.20%
PCSK9 [2]; 350 mg Q4W SC
  Treatment difference vs ezetimibe in LDL-C percent change, week 12: −29.34* %
  Treatment difference vs placebo in LDL-C percent change, week 12: −47.74* %
PCSK9 [2]; [5]
  mean percent reduction from baseline in LDL-C: 42.16%
PCSK9 [2]; 420 mg Q4W SC (N = 45)
  Least squares mean percent change from baseline in LDL-C, week 12: −47.98%
PCSK9 [2]; 420 mg Q4W SC
  Treatment difference vs ezetimibe in LDL-C percent change, week 12: −34.14* %
  Treatment difference vs placebo in LDL-C percent change, week 12: −52.53* %
  mean percent reduction from baseline in LDL-C: 47.52%
PCSK9 [2]; final data
  change in LDL-C from baseline to week 12 greater than with placebo: up to 72 mg/dL
  mean reduction from baseline for ApoB: up to 44%
  mean reduction from baseline for Lp(a): up to 29%
PCSK9 [2]; week 12, final data
  LDL-C reductions from baseline greater than ezetimibe: 37%
PCSK9 [2]; week 12, final data, across dose regimens
  least-squares (LS) mean percent reduction from baseline in LDL-C: up to 51%
PCSK9 [3]
  LDL-C returned to levels similar to control animals: ≤ 6 days
  TC returned to levels similar to control animals: ≤ 4 days
  maximal LDL-C lowering as compared to control animals: 64%
  maximal TC lowering as compared to control animals: 20%
  maximal lowering of LDL-C vs anti-KLH IgG2 control at the same time point (change): −64%
  serum HDL-C vs anti-KLH IgG2 control: statistically significant change in HDL-C at a single time point (day 18 following injection); also recorded: lowered HDL-C at a single time point, 18 days after injection
  time of maximal LDL-C lowering after injection: 3 days
  time of maximal TC lowering after injection: 3 days
  triglycerides levels vs anti-KLH IgG2 control: No statistically significant changes
PCSK9 [3]; days 3, 6, 15, 24 and 33
  serum ApoB vs anti-KLH IgG2 control: statistically significant lower ApoB levels at day 3 only
